The target of experiment [1] is T1, recombinant human PD-1-Fc (human, UniProt Q15116 25-167). The experiment can be described thus: competition ELISA; blocking PD-1/PD-L1. (In general: ELISA stands for enzyme-linked immunosorbent assay.)
In experiment [2] the target is recombinant human PD-1 (product No. 10377-H08H, Beijing Yiqiao Shenzhou) (human, UniProt Q15116 25-167). The experiment can be described thus: ELISA.
The target in experiment [3] is T1, recombinant human PD-1-Fc. The experiment can be described thus: competition ELISA; blocking PD-1/PD-L2.

The record followed here is patent US20210032343A1 (published 2021).

T1 sequence (Q15116 25-167): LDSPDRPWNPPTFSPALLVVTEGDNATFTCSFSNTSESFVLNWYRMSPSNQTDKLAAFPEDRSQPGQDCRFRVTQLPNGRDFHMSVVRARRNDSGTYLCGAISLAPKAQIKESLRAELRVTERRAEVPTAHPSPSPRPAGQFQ
recombinant human PD-1 (product No. 10377-H08H, Beijing Yiqiao Shenzhou), sequence (Q15116 25-167): as above

B1: PD-1 monoclonal antibody (antibody, V domains shown)
VH: QVQLVQSGAEVKKPGSSVKVSCKASGGTFSSTAISWVRQAPGQGLEWMGGIWPSFGTASYAQKFQGRVTITADESTSTAYMELSSLRSEDTAVYYCARAEYSSTGIFDYWGQGTLVTVSS
VL: DIQMTQSPSSVSASVGDRVTITCRASQGISSWLAWYQQKPGKAPKLLISAASSLQSGVPSRFSGSGSGTDFTLTISSLQPEDFATYYCQQANHLPFTFGGGTKVEIK
The term IC50 denotes the concentration that gives 50% inhibition. Broadly, the EC50 is the concentration giving half of the maximal effect. As for B1, the values for the IC50 in experiment [1] and in experiment [3] were 2.71 nM and 2.89 nM, respectively. Also, the EC50 in experiment [2] was found to be 0.18 nM.
